Measurements as given in patent US20230357348A1 (AstraZeneca / MedImmune, published 2023).
Starred links: 1 amine or outer side, 2 acyl side, 3 side chain; linkers in the order of their positions; H or OH if unused. Non-standard residues stand in square brackets, D forms with d. Groups on a side chain read outwards from the residue. No end group written: not given here. *: point of attachment. C20 diacid = O=C(O)CCCCCCCCCCCCCCCCCCC(=O)*; C18 diacid = O=C(O)CCCCCCCCCCCCCCCCC(=O)*; γGlu = O=C(O)[C@H](CCC(=O)[*:2])N[*:1]; αMeF = C[C@](N)(Cc1ccccc1)C(=O)O; AEEA = NCCOCCOCC(=O)O; Aib = CC(C)(N)C(=O)O

B1: Peptide 495 (peptide)
peptide: H[Aib]QGTFTSDVSK[αMeF]LDTK([AEEA-AEEA-γGlu-C18 diacid])RAQDFVRWLLR[Aib]K-NH2
modifications: N-terminus assumed
SMILES: CC(C)C[C@H](NC(=O)[C@H](Cc1c[nH]c2ccccc12)NC(=O)[C@H](CCCNC(=N)N)NC(=O)[C@@H](NC(=O)[C@H](Cc1ccccc1)NC(=O)[C@H](CC(=O)O)NC(=O)[C@H](CCC(N)=O)NC(=O)[C@H](C)NC(=O)[C@H](CCCNC(=N)N)NC(=O)[C@H](CCCCNC(=O)COCCOCCNC(=O)COCCOCCNC(=O)CC[C@H](NC(=O)CCCCCCCCCCCCCCCCC(=O)O)C(=O)O)NC(=O)[C@@H](NC(=O)[C@H](CC(=O)O)NC(=O)[C@H](CC(C)C)NC(=O)[C@](C)(Cc1ccccc1)NC(=O)[C@H](CCCCN)NC(=O)[C@H](CO)NC(=O)[C@@H](NC(=O)[C@H](CC(=O)O)NC(=O)[C@H](CO)NC(=O)[C@@H](NC(=O)[C@H](Cc1ccccc1)NC(=O)[C@@H](NC(=O)CNC(=O)[C@H](CCC(N)=O)NC(=O)C(C)(C)NC(=O)[C@@H](N)Cc1c[nH]cn1)[C@@H](C)O)[C@@H](C)O)C(C)C)[C@@H](C)O)C(C)C)C(=O)N[C@@H](CC(C)C)C(=O)N[C@@H](CCCNC(=N)N)C(=O)NC(C)(C)C(=O)N[C@@H](CCCCN)C(N)=O
B2: Peptide 497 (peptide)
peptide: H[Aib]QGTFTSDVSK[αMeF]LDTK([AEEA-AEEA-γGlu-C18 diacid])RAQDFVRWLLR[Aib]A-OH
modifications: N-terminus assumed
SMILES: CC(C)C[C@H](NC(=O)[C@H](Cc1c[nH]c2ccccc12)NC(=O)[C@H](CCCNC(=N)N)NC(=O)[C@@H](NC(=O)[C@H](Cc1ccccc1)NC(=O)[C@H](CC(=O)O)NC(=O)[C@H](CCC(N)=O)NC(=O)[C@H](C)NC(=O)[C@H](CCCNC(=N)N)NC(=O)[C@H](CCCCNC(=O)COCCOCCNC(=O)COCCOCCNC(=O)CC[C@H](NC(=O)CCCCCCCCCCCCCCCCC(=O)O)C(=O)O)NC(=O)[C@@H](NC(=O)[C@H](CC(=O)O)NC(=O)[C@H](CC(C)C)NC(=O)[C@](C)(Cc1ccccc1)NC(=O)[C@H](CCCCN)NC(=O)[C@H](CO)NC(=O)[C@@H](NC(=O)[C@H](CC(=O)O)NC(=O)[C@H](CO)NC(=O)[C@@H](NC(=O)[C@H](Cc1ccccc1)NC(=O)[C@@H](NC(=O)CNC(=O)[C@H](CCC(N)=O)NC(=O)C(C)(C)NC(=O)[C@@H](N)Cc1c[nH]cn1)[C@@H](C)O)[C@@H](C)O)C(C)C)[C@@H](C)O)C(C)C)C(=O)N[C@@H](CC(C)C)C(=O)N[C@@H](CCCNC(=N)N)C(=O)NC(C)(C)C(=O)N[C@@H](C)C(=O)O
B3: Peptide 493 (peptide)
peptide: H[Aib]QGTFTSDVSK[αMeF]LDTK([AEEA-AEEA-γGlu-C18 diacid])RAQDFVRWLLR[Aib]K-OH
modifications: N-terminus assumed
SMILES: CC(C)C[C@H](NC(=O)[C@H](Cc1c[nH]c2ccccc12)NC(=O)[C@H](CCCNC(=N)N)NC(=O)[C@@H](NC(=O)[C@H](Cc1ccccc1)NC(=O)[C@H](CC(=O)O)NC(=O)[C@H](CCC(N)=O)NC(=O)[C@H](C)NC(=O)[C@H](CCCNC(=N)N)NC(=O)[C@H](CCCCNC(=O)COCCOCCNC(=O)COCCOCCNC(=O)CC[C@H](NC(=O)CCCCCCCCCCCCCCCCC(=O)O)C(=O)O)NC(=O)[C@@H](NC(=O)[C@H](CC(=O)O)NC(=O)[C@H](CC(C)C)NC(=O)[C@](C)(Cc1ccccc1)NC(=O)[C@H](CCCCN)NC(=O)[C@H](CO)NC(=O)[C@@H](NC(=O)[C@H](CC(=O)O)NC(=O)[C@H](CO)NC(=O)[C@@H](NC(=O)[C@H](Cc1ccccc1)NC(=O)[C@@H](NC(=O)CNC(=O)[C@H](CCC(N)=O)NC(=O)C(C)(C)NC(=O)[C@@H](N)Cc1c[nH]cn1)[C@@H](C)O)[C@@H](C)O)C(C)C)[C@@H](C)O)C(C)C)C(=O)N[C@@H](CC(C)C)C(=O)N[C@@H](CCCNC(=N)N)C(=O)NC(C)(C)C(=O)N[C@@H](CCCCN)C(=O)O
B4: Peptide 496 (peptide)
peptide: H[Aib]QGTFTSDVSK[αMeF]LDTK([AEEA-AEEA-γGlu-C20 diacid])RAQDFVRWLLR[Aib]K-NH2
modifications: N-terminus assumed
SMILES: CC(C)C[C@H](NC(=O)[C@H](Cc1c[nH]c2ccccc12)NC(=O)[C@H](CCCNC(=N)N)NC(=O)[C@@H](NC(=O)[C@H](Cc1ccccc1)NC(=O)[C@H](CC(=O)O)NC(=O)[C@H](CCC(N)=O)NC(=O)[C@H](C)NC(=O)[C@H](CCCNC(=N)N)NC(=O)[C@H](CCCCNC(=O)COCCOCCNC(=O)COCCOCCNC(=O)CC[C@H](NC(=O)CCCCCCCCCCCCCCCCCCC(=O)O)C(=O)O)NC(=O)[C@@H](NC(=O)[C@H](CC(=O)O)NC(=O)[C@H](CC(C)C)NC(=O)[C@](C)(Cc1ccccc1)NC(=O)[C@H](CCCCN)NC(=O)[C@H](CO)NC(=O)[C@@H](NC(=O)[C@H](CC(=O)O)NC(=O)[C@H](CO)NC(=O)[C@@H](NC(=O)[C@H](Cc1ccccc1)NC(=O)[C@@H](NC(=O)CNC(=O)[C@H](CCC(N)=O)NC(=O)C(C)(C)NC(=O)[C@@H](N)Cc1c[nH]cn1)[C@@H](C)O)[C@@H](C)O)C(C)C)[C@@H](C)O)C(C)C)C(=O)N[C@@H](CC(C)C)C(=O)N[C@@H](CCCNC(=N)N)C(=O)NC(C)(C)C(=O)N[C@@H](CCCCN)C(N)=O
B5: Peptide 492 (peptide)
peptide: H[Aib]QGTFTSDVSK[αMeF]LDTK([AEEA-AEEA-γGlu-C20 diacid])RARDFVRWLL[Aib]TE-OH
modifications: N-terminus assumed
SMILES: CC(C)C[C@H](NC(=O)[C@H](Cc1c[nH]c2ccccc12)NC(=O)[C@H](CCCNC(=N)N)NC(=O)[C@@H](NC(=O)[C@H](Cc1ccccc1)NC(=O)[C@H](CC(=O)O)NC(=O)[C@H](CCCNC(=N)N)NC(=O)[C@H](C)NC(=O)[C@H](CCCNC(=N)N)NC(=O)[C@H](CCCCNC(=O)COCCOCCNC(=O)COCCOCCNC(=O)CC[C@H](NC(=O)CCCCCCCCCCCCCCCCCCC(=O)O)C(=O)O)NC(=O)[C@@H](NC(=O)[C@H](CC(=O)O)NC(=O)[C@H](CC(C)C)NC(=O)[C@](C)(Cc1ccccc1)NC(=O)[C@H](CCCCN)NC(=O)[C@H](CO)NC(=O)[C@@H](NC(=O)[C@H](CC(=O)O)NC(=O)[C@H](CO)NC(=O)[C@@H](NC(=O)[C@H](Cc1ccccc1)NC(=O)[C@@H](NC(=O)CNC(=O)[C@H](CCC(N)=O)NC(=O)C(C)(C)NC(=O)[C@@H](N)Cc1c[nH]cn1)[C@@H](C)O)[C@@H](C)O)C(C)C)[C@@H](C)O)C(C)C)C(=O)N[C@@H](CC(C)C)C(=O)NC(C)(C)C(=O)N[C@H](C(=O)N[C@@H](CCC(=O)O)C(=O)O)[C@@H](C)O

target: human glucagon receptor (hGCGR) (human, UniProt P47871 26-477); test: cell-based or functional assay
Sequence (P47871 26-477): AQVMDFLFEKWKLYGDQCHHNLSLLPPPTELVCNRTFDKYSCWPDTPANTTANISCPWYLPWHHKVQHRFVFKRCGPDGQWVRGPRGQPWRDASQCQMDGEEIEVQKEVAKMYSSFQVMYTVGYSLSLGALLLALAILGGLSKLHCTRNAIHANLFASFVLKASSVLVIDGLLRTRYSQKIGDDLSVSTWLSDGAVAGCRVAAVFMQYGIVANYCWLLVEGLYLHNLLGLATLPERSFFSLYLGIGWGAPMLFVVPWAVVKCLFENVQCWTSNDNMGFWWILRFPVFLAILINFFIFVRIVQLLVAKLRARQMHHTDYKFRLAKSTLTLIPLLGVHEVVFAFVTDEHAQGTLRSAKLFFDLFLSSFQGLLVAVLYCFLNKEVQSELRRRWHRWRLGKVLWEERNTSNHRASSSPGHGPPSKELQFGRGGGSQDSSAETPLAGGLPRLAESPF

hGluc-R EC50 (pM)	Binder
380	B1
118	B2
166	B3
212	H[Aib]QGTFTSDVSK[αMeF]LDTK([AEEA-AEEA-γGlu-C20 diacid])RAQDFVRWLLR[Aib]K-OH [Peptide 494]
482	B4
374	B5

target: human GLP-1 receptor (hGLP-1R) (human, UniProt P43220 24-463); test: cell-based or functional assay

hGLP-1R EC50 (pM)	Binder
23.2	B1
37.4	B2
23.4	B3
98.7	H[Aib]QGTFTSDVSK[αMeF]LDTK([AEEA-AEEA-γGlu-C20 diacid])RAQDFVRWLLR[Aib]K-OH [Peptide 494]
64.9	B4
212	B5
